We go through 6 molecules from publication PMC10397247.

Assay in all cases: two-hybrid library CCNG1;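 further: natural log of median RNA to DNA barcode read ratio; higher means stronger binding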
The target in test [1] is T1, 4H470-bA.
T1 chain: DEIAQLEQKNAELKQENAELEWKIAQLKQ

Test [2] has as its target T2, 4H741-bH.
T2 chain: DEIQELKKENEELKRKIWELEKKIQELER

The target in test [3] is T3, 4H2839-bH.
T3 chain: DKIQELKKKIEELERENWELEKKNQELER

Test [4] addresses T4, 4H319-bH.
T4 chain: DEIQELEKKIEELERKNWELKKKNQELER

Test [5] has as its target T5, 4H477-bH.
T5 chain: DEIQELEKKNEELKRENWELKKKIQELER

Test [6] has as its target T6, 4H2692-bH.
T6 chain: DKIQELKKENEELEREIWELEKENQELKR

Test [7] deals with T7, 4H3277-bH.
T7 chain: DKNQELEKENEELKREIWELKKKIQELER

Test [8] has as its target T8, 4H492-bH.
T8 chain: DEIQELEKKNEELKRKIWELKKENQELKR

The target of test [9] is T9, 4H348-bH.
T9 chain: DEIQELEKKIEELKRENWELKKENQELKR

Test [10] concerns the target T10, 4H40-bH.
T10 chain: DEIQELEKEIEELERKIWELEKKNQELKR

Test [11] has as its target T11, 4H2915-bH.
T11 chain: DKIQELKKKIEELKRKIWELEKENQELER

The target of test [12] is T12, 4H3057-bH.
T12 chain: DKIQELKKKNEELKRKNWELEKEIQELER

The target in test [13] is T13, 4H2717-bH.
T13 chain: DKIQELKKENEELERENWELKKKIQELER

The target in test [14] is T14, 4H741-bN.
T14 chain: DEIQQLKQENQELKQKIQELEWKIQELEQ

In test [15] the target is T15, O2-bS.
T15 chain: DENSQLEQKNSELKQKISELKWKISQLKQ

Test [16] deals with T16, 4H4001-bH.
T16 chain: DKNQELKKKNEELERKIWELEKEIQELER

The target of test [17] is T17, 4H883-bH.
T17 chain: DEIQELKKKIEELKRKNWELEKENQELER

Test [18] has as its target T18, 4H953-bH.
T18 chain: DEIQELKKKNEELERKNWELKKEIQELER

The target in test [19] is T19, 4H3843-bH.
T19 chain: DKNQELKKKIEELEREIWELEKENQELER

Test [20] deals with T20, 4H568-bH.
T20 chain: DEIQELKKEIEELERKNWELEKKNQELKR

In test [21] the target is T21, 4H3782-bH.
T21 chain: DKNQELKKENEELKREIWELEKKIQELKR

The target in test [22] is T22, 4H72-bH.
T22 chain: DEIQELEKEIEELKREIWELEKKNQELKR

Test [23] concerns the target T23, 4H607-bH.
T23 chain: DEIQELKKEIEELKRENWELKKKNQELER

Test [24] deals with T24, 4H918-bH.
T24 chain: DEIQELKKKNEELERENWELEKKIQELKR

The target in test [25] is T25, 4H462-bH.
T25 chain: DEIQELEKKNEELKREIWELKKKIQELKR

Test [26] has as its target T26, 4H370-bH.
T26 chain: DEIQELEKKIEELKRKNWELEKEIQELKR

In test [27] the target is T27, 4H3189-bH.
T27 chain: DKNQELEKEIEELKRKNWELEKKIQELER

In test [28] the target is T28, 4H967-bH.
T28 chain: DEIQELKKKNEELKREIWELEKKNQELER

The target in test [29] is T29, 4H2697-bH.
T29 chain: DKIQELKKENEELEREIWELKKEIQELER

Test [30] concerns the target T30, 4H797-bH.
T30 chain: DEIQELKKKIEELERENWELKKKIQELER

Test [31] addresses T31, 4H3606-bH.
T31 chain: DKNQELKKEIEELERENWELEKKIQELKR

Test [32] concerns the target T32, 4H687-bH.
T32 chain: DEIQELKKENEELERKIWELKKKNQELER

In test [33] the target is T33, 4H331-bH.
T33 chain: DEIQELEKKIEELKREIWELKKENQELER

Test [34] has as its target T34, 4H72-bN.
T34 chain: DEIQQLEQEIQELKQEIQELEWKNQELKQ

Test [35] concerns the target T35, 4H4001-bN.
T35 chain: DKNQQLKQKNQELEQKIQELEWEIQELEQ

Test [36] has as its target T36, 4H3172-bN.
T36 chain: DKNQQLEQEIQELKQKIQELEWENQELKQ

Test [37] deals with T37, 4H908-bN.
T37 chain: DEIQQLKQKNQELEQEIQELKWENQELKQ

Test [38] deals with T38, 4H953-bN.
T38 chain: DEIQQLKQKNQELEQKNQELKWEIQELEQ

Test [39] has as its target T39, 4H607-bN.
T39 chain: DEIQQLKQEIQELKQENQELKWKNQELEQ

The target of test [40] is T40, 4H3354-bN.
T40 chain: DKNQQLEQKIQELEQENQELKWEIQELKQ

For test [41], the target named is T41, 4H457-bN.
T41 chain: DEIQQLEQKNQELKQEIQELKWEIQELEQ

Test [42] deals with T42, 4H3185-bN.
T42 chain: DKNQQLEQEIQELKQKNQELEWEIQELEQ

The target in test [43] is T43, 4H3926-bN.
T43 chain: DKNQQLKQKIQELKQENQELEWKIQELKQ

For test [44], the target named is T44, 4H3129-bH.
T44 chain: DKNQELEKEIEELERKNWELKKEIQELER

In test [45] the target is T45, 4H855-bN.
T45 chain: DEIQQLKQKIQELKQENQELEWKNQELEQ

In test [46] the target is T46, 4H575-bN.
T46 chain: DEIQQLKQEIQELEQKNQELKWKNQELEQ

For test [47], the target named is T47, 4H883-bN.
T47 chain: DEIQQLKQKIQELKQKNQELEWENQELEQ

Test [48] addresses T48, 4H568-bN.
T48 chain: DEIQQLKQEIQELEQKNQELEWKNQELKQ

Test [49] addresses T49, 4H331-bN.
T49 chain: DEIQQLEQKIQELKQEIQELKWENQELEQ

In test [50] the target is T50, 4H338-bN.
T50 chain: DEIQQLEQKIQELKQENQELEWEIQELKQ

Test [51] concerns the target T51, 4H780-bN.
T51 chain: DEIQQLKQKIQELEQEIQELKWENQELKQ

Test [52] addresses T52, 4H3855-bN.
T52 chain: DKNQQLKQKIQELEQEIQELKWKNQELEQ

Test [53] deals with T53, 4H797-bN.
T53 chain: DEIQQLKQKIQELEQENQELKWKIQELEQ

The target of test [54] is T54, 4H683-bN.
T54 chain: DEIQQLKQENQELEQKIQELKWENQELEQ

In test [55] the target is T55, 4H918-bN.
T55 chain: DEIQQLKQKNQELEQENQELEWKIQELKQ

The target in test [56] is T56, 4H346-bN.
T56 chain: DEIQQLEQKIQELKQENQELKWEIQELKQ

Test [57] has as its target T57, 4H454-bN.
T57 chain: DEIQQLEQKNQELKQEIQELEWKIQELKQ

In test [58] the target is T58, 4H687-bN.
T58 chain: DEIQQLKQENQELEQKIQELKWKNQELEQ

Test [59] concerns the target T59, 4H4073-bN.
T59 chain: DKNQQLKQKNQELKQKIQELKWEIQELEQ

Test [60] deals with T60, 4H968-bN.
T60 chain: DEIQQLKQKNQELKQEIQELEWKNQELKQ

The target of test [61] is T61, 4H3112-bN.
T61 chain: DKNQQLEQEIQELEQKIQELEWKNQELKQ

Test [62] addresses T62, 4H754-bN.
T62 chain: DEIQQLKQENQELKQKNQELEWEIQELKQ

For test [63], the target named is T63, 4H3817-bH.
T63 chain: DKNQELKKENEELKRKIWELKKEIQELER

Test [64] has as its target T64, 4H967-bN.
T64 chain: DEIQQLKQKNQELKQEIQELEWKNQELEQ

Test [65] concerns the target T65, 4H3782-bN.
T65 chain: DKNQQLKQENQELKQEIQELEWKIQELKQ

Test [66] deals with T66, 4H3427-bN.
T66 chain: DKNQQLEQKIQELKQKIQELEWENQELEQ

Test [67] has as its target T67, 4H717-bN.
T67 chain: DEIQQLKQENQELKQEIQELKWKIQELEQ

The target of test [68] is T68, 4H3961-bA.
T68 chain: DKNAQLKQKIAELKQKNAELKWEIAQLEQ
The settings on record: mean of both orientations.

B1: 4H470-bA (peptide)
chain: DEIAQLEQKNAELKQENAELEWKIAQLKQ
Regarding B1, in [1], the interaction score worked out at 0.201.

B2: 4H2692-bH (peptide)
chain: DKIQELKKENEELEREIWELEKENQELKR
In the case of B2, the interaction score in [2] was -1.04; in [3], -0.447; in test [4], -1.1; in test [5] it was -0.436; in test [6], 0.733; in test [7], -0.368. For the same molecule, the interaction score in test [8] is 1.54; in test [9] it was -0.787; in test [10], 0.218; in test [11] it was 0.971; in test [12], -0.0522; in test [13], -0.125.

B3: 4H741-bN (peptide)
chain: DEIQQLKQENQELKQKIQELEWKIQELEQ
Turning to B3, the interaction score in test [14] was 1.19; in test [15], -3.38.

B4: 4H2697-bH (peptide)
chain: DKIQELKKENEELEREIWELKKEIQELER
B4: the interaction score is -0.578 in [16]; -0.628 in test [17]; -0.201 in test [18]; -0.103 in test [19]; -1.4 in test [20]; 0.502 in test [21]. For the same molecule, the interaction score is -1.97 in test [22]; -0.619 in [23]; -0.619 in test [24]; -0.915 in [25]; -0.895 in test [26]; -0.0723 in test [27]. Further, the interaction score in test [28] was 0.26; in test [29], 0.402; in test [30] it was -0.611; in test [31] it was -1.34; in [32], -0.768; in test [33] it was 0.0266.

B5: 4H3112-bN (peptide)
chain: DKNQQLEQEIQELEQKIQELEWKNQELKQ
B5: the interaction score in [34] is -0.5; in test [35] it was -0.255; in test [36], 0.00481; in test [37], 0.308; in [38], 0.0741; in test [39], 0.634. Moreover, the interaction score was 0.377 in [40]; -0.526 in [41]; -1.11 in test [42]; 0.154 in [43]; -0.762 in test [44]; 0.606 in [45]. Further, the interaction score in [46] was -1.34; in test [47], 1.54; in test [48] it was 0.078; in test [49] it was -0.918; in test [50], -0.816; in test [51], -0.0911. In addition, the interaction score is -0.962 in test [52]; -0.676 in [53]; 0.347 in test [54]; 0.0994 in [55]; 0.282 in test [56]; 0.745 in test [57]. Further, the interaction score in test [58] was -1.66; in [59], -0.28; in test [60], -0.158; in test [61], -0.426; in test [62] it was -1.34; in test [63], -0.521. Also, the interaction score was -1.11 in test [64], -0.541 in test [65], 0.996 in test [66] and -1.88 in test [67].

B6: 4H3961-bA (peptide)
chain: DKNAQLKQKIAELKQKNAELKWEIAQLEQ
Regarding B6, the interaction score is -0.153 in test [1] and -1.09 in test [68].
